The values that follow come from patent US20130295010A1, “HER2 BINDING PEPTIDES LABELLED WITH A 18F - CONTAINING ORGANOSILICON COMPOUND” (priority 2010, published 2013).

The conditions of data set [1]: mouse, in vivo, iv, 3 MBq, 1.5 h.
Protocol: Following intravenous injection of 3 MBq of activity (2.5 MBq for the 2 min time point), animals were sacrificed at 2, 90, 120 and 180 min post injection and retention of radioactivity was assessed in key organs.
In data set [2] the test system is target-expressing SKOV3 tumors. Particulars: mouse, in vivo.
Protocol: In vivo studies were carried out with female CD-1 nude mice (Charles River Labs, Hopkinton, Mass.) with an age range between 6 and 15 weeks. Mice were housed in a ventilated rack with food and water ad libitum and a standard 12 hour day-night lighting cycle. For xenografts, animals were injected with 100 μl of cells in PBS. Cells were implanted subcutaneously in the right hindquarter. Implantation was performed under isoflurane anesthesia. For SKOV3, between 3×10^6 to 4×10^6 cells were implanted in each mouse. Under these conditions, useable tumors (100 to 300 μg) were obtained in 3 to 4 weeks in greater than 80% of animals injected.
Mice were given tail-vein injections of ˜1 μg of ^99mTc-labeled polypeptides (˜3 μCi/1 μg). […] Three mice were euthanized at each timepoint and tissues of interest dissected and counted on a Perkin Elmer Wallac Wizard 1480 Gamma Counter. […] Urine from cages was pooled with the bladder and also counted. The remaining tissues were counted and the sum of all tissues plus urine for each animal was summed to provide the total injected dose. The % injected dose for each organ was determined based on this total, and organs were weighed for determination of the % injected dose per gram, (% ID/g). […]
Mice were given tail-vein injections of ˜1 ug of ^99mTc-labeled polypeptides (˜10 μCi/1 μg). […] Urine from cages was pooled with the bladder and also counted. […]

Take “[18F]AlF-NOTA(COOH)-2-Z02891(SEQ ID No. 2) [Compound 5]”: in data set [1], the kidney retention came out at 70.3 % ID.

For the substance “Z02891 (SEQ. ID No. 2) ^18F-fluorobenzyl oxime: Z02891-ONH2 (Mal-AO linker on C-terminal cysteine) conjugated with [18F]4-fluorobenzaldehyde”, in data set [2], the “activity in the kidneys” value is reported as 0.95±0.07 ID/organ.
